Data set [1] addresses T1, bradykinin peptide-oligo conjugate (synthetic, also: C-terminal Cys conjugated to 3' end of DNA oligo tail).
T1 chain: RPPGFSPFRC
Put plainly: no off-target hits. Particulars: tags: C-terminal Cys conjugated to DNA oligo tail tethered to flow cell (Genscript).

The target of data set [2] is T2, argipressin peptide-oligo conjugate (synthetic, UniProt P01185 P01185:20-28, ends and bridges not checked; also: oligonucleotide conjugate, site not given here).
T2 chain: CYFQNCPRG
Briefly: barcode ligation sequencing on flow cell, over 100 hits on argipressin foundations. Particulars: tags: C-terminal DNA oligo tail tethered to flow cell (Genscript).

Experimental findings from patent publication US20210079557A1, “Methods and Compositions for Protein and Peptide Sequencing” (Google LLC, published 2021) are described below.

No end group written: not given here.

B1: argipressin BCS aptamer 3 (ssDNA)
DNA: GAGAGTCCACGTGCACAGATAACGAATTCGTATAGGCGCAGCATACATCGGACATACATCCTGCGTGCATCCACCTTTGCATACTTGGCGTTCTTACCACCA
modifications: 5'-phosphate
For B1, the binding result is on record as “no binding” in data set [1] and “binds” in data set [2].

B2: argipressin BCS aptamer 2 (ssDNA)
DNA: GAGAGTTAGTCAGCAGGGATAACGAATTCGTATAGGCGCAGCATTTGATTCTGCTGCGTGCATACCCCTGTGTGTTATCCCTACTTGGCGTTCTTACCACCA
modifications: 5'-phosphate
Turning to B2, the results for the binding result in data set [1] and in data set [2] were “no binding” and “binds”, respectively.

B3: argipressin BCS aptamer 1 (ssDNA)
DNA: GAGAGTAAAGCCGATAGGATAACGAATTCGTATAGGCGCAGGATGGACTTGATAACCTTCTGCTGCGTGCCTTGATGTGCTTACTTGGCGTTCTTACCACCA
modifications: 5'-phosphate
With B3, the binding result in data set [1] is given as “no binding”; in data set [2], “binds”.
